Test results taken from patent US20260217843A1 (APOGEE THERAPEUTICS, published 2026).
Substitutions are numbered along the chain they refer to.

Assays:
[1] = target: T1, Recombinant Human OX40L Protein, His Tag (Acro Cat. IL3-H52H4) (human, UniProt P23510 51-183); test: SPR (Biacore 8K), antibody captured, human OX40L injected, 1:1 fit
T1 construct: Bought His-tagged protein; also called hOX40L
T1 sequence: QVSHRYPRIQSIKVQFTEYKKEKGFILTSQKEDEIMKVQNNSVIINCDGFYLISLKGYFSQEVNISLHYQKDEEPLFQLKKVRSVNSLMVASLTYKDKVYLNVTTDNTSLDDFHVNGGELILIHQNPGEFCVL
Experimental: (§1) Samples were injected in a multi-cycle manner over freshly captured mAb, by regenerating the capture surfaces with injection of glycine pH 1.5 for 30 sec at a flow rate of 30 μL/min. The data was processed and analyzed with Biacore Insight Evaluation Software Version 2.0.15.12933 (GE Healthcare) as follows. […] The responses from the two buffer blank injections were then subtracted from the reference subtracted data (2-1) to yield double-referenced data, which were fit to an 1:1 binding model to determine the apparent association (ka) and dissociation rate constants (kd). Their ratio provided the apparent equilibrium dissociation constant or affinity constant (KD=kd/ka).

[2] = target: T2, C1q; test: SPR (Biacore 8K+), antibody captured by anti-human IgG Fc, C1q injected at 25 nM, mean response
T2 construct: also called Clq
T2 sequence (P02745 23-245, chain 1 of 3): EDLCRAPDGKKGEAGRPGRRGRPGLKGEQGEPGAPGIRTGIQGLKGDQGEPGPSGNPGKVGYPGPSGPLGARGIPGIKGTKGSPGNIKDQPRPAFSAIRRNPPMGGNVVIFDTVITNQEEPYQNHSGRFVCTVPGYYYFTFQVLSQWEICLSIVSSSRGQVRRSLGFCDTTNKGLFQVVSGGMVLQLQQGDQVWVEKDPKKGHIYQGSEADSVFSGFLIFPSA
T2 sequence (P02746 28-253, chain 2 of 3, further chain): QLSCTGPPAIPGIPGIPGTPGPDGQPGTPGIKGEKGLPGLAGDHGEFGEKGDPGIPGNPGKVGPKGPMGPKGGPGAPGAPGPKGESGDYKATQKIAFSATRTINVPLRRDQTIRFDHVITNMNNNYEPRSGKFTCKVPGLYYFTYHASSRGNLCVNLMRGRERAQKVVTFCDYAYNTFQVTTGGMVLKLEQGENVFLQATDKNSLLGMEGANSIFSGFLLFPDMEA
T2 sequence (P02747 29-245, chain 3 of 3, further chain): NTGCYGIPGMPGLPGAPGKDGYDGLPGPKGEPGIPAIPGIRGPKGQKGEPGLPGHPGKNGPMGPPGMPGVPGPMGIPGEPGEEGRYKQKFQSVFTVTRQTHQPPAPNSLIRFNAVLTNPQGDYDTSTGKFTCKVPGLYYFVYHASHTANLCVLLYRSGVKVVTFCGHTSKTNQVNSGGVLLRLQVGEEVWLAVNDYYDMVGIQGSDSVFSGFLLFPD
Experimental: (§2) Briefly, a CM5 Series S sensor chip functionalized with anti-human IgG Fc antibody was used to capture antibodies at 5 μg/mL. […] The chip was regenerated with 10 mM glycine pH 1.5 and 10 mM NaOH between runs.

[3] = target: T3, hOX40L on hOX40L-expressing CHO cells (human, UniProt P23510 1-183); test: flow cytometry on hOX40L-expressing CHO cells, gMFI, nonlinear regression
T3 construct: also called cell surface OX40L
T3 sequence: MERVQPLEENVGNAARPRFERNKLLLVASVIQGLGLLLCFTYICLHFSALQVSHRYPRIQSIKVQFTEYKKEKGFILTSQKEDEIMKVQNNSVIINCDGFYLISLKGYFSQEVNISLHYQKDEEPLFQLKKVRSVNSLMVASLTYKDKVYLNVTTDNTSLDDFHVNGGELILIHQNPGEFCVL
Experimental: Nonlinear regression was performed on geometric mean fluorescence intensity (gMFI) values to determine EC50 values (FIG. 1, TABLE 8).

[4] = target: cynomolgus FcRn (cynomolgus, UniProt Q8SPV9 24-297; Q8SPW0 21-119); test: SPR (Biacore 8K+), antibody captured by anti-human kappa, cynomolgus FcRn injected, pH 5.8; pH 5.8
Sequence of cynomolgus FcRn (Q8SPV9 24-297 limits assumed, chain 1 of 2): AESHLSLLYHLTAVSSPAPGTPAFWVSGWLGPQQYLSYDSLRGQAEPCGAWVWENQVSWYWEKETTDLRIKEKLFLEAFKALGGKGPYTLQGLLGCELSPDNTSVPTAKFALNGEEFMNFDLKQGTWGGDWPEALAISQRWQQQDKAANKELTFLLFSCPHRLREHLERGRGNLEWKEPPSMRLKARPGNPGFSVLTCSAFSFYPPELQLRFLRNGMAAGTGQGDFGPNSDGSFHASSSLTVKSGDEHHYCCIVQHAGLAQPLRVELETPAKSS
Sequence of cynomolgus FcRn (Q8SPW0 21-119 limits assumed, chain 2 of 2): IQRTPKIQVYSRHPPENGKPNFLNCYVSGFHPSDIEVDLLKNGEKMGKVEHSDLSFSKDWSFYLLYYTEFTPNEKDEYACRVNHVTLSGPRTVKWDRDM
Experimental: (§3) Briefly, a CM5 Series S sensor chip functionalized with anti-human kappa antibody was used to capture antibodies at 5 μg/mL. […] The chip was regenerated with 10 mM glycine pH 1.5 and 10 mM NaOH between runs.

[5] = target: T4, Recombinant Cynomolgus OX40L Protein, His Tag (SINO BIOLOGICAL, Cat. 11057-C07H) (cynomolgus, UniProt G7NVH7 51-183); test: SPR (Biacore 8K), antibody captured, cynomolgus OX40L injected, 1:1 fit
T4 construct: Bought protein
T4 sequence: T1 sequence with R5Q, K23E
Experimental: as §1

[6] = target: T5, biotinylated hOX40L (human, UniProt P23510 51-183, limits assumed, biotinylated (sites not given)); test: blocking ELISA: biotinylated hOX40L preincubated with titrated antibody, added to coated hOX40-Fc, Extravidin-HRP
T5 construct: construct not described
T5 sequence: T1 sequence

[7] = target: T6, hOX40L added as soluble protein in cell assays (human, UniProt P23510 51-183, limits assumed); test: cell-based or functional assay
T6 sequence: T1 sequence

[8] = target: T6, hOX40L added as soluble protein in cell …; test: cell-based or functional assay; remark: listed apart in the source
[9] = target: T7, human CD16a 176F (human, UniProt P08637 17-208); test: SPR (Biacore 8K+), antibody captured by anti-human IgG Fc, receptor injected
T7 construct: numbering not explained
T7 sequence (P08637 17-208 limits assumed): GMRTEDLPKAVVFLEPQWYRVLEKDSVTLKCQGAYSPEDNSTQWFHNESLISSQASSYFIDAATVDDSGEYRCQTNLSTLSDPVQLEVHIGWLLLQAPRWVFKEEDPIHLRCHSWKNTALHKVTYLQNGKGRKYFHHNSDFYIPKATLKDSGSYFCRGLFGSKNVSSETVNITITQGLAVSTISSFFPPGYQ
Experimental: as §2

[10] = target: T8, human CD32b (human, UniProt P31994 46-217); test: as above
T8 sequence (looked up): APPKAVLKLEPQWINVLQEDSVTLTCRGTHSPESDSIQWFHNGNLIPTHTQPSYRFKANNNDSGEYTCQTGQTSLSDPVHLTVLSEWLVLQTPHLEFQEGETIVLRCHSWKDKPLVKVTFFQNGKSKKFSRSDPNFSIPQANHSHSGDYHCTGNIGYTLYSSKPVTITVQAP
Experimental: as §2

[11] = target: T9, human CD32a 167H (human, UniProt P12318 36-218); test: as above
T9 construct: numbering not explained
T9 sequence (looked up): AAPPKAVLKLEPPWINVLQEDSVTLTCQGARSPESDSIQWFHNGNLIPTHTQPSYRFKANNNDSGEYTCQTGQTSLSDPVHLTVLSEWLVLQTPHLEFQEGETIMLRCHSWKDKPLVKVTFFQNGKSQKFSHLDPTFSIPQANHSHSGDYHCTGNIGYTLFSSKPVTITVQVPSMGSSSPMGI
Experimental: as §2

[12] = target: human CD16b (human, UniProt O75015 17-200, limits assumed); test: as above
Sequence of human CD16b (O75015 17-200 limits assumed): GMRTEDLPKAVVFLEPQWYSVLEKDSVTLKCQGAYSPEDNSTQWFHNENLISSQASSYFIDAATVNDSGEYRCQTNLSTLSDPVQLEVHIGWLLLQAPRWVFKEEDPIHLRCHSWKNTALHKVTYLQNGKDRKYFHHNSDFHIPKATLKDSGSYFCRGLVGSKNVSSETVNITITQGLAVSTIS
Experimental: as §2

[13] = target: T10, human CD32a 167R (human, UniProt P12318 36-218); test: as above
T10 construct: numbering not explained
T10 sequence (looked up): T9 sequence (looked up) with H132R
Experimental: as §2

[14] = target: human CD64 (human, UniProt P12314 16-288); test: as above
Sequence of human CD64 (P12314 16-288 limits assumed): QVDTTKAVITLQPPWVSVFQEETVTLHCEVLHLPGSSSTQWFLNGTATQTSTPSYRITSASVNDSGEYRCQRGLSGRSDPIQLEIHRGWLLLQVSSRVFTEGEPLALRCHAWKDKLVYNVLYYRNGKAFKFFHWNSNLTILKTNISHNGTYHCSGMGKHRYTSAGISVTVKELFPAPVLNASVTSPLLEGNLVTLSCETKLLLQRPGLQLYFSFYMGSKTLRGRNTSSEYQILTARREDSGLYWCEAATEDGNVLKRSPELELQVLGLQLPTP
Experimental: as §2

[15] = target: T11, human CD16a 176V (human, UniProt P08637 17-208); test: as above
T11 construct: Allelic variant named only as '176V'; numbering not explained
T11 sequence (P08637 17-208 F176V limits assumed): as the sequence (P08637 17-208 limits assumed) above, with F160V counted along it
Experimental: as §2

[16] = target: human FcRn (human, UniProt P55899 24-297; P61769 21-119); test: SPR (Biacore 8K+), antibody captured by anti-human kappa, human FcRn injected, pH 5.8; pH 5.8
Sequence of human FcRn (P55899 24-297 limits assumed, form in doubt, chain 1 of 2): as the sequence (Q8SPV9 24-297 limits assumed, chain 1 of 2) above, with D39N, Q44E, S99G, G189S, N190S, M217L, T269S counted along it
Sequence of human FcRn (P61769 21-119 limits assumed, form in doubt, chain 2 of 2): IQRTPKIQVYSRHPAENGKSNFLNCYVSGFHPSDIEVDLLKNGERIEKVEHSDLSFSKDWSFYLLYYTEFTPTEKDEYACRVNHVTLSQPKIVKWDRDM
Experimental: as §3

B1: anti-hOX40L antibody clone 105 (antibody, human IgG1, kappa, L234A L235A)
heavy: EVRLVESGGGLVQPGGSLRLSCAASGFTFSSYAMTWVRQAPGKGLEWVSLISGSGGLTKYADSVKGRFTISRDNSKKTLYLQMNSLRAEDTAVYYCAKDEGLTTGEYWGQGTLVTVSSASTKGPSVFPLAPSSKSTSGGTAALGCLVKDYFPEPVTVSWNSGALTSGVHTFPAVLQSSGLYSLSSVVTVPSSSLGTQTYICNVNHKPSNTKVDKKVEPKSCDKTHTCPPCPAPEAAGGPSVFLFPPKPKDTLYITREPEVTCVVVDVSHEDPEVKFNWYVDGVEVHNAKTKPREEQYNSTYRVVSVLTVLHQDWLNGKEYKCKVSNKALPAPIEKTISKAKGQPREPQVYTLPPSRDELTKNQVSLTCLVKGFYPSDIAVEWESNGQPENNYKTTPPVLDSDGSFFLYSKLTVDKSRWQQGNVFSCSVMHEALHNHYTQKSLSLSPG
light: DIQMTQSPSSLSASVGDRVTITCRASQGIRNDLGWYQQKPGKAPKRLIYATSSFQSGVPSRFSGSGSGTEFTLTISSLQPEDFATYYCLQHNSYPFTFGPGTKVDVKRTVAAPSVFIFPPSDEQLKSGTASVVCLLNNFYPREAKVQWKVDNALQSGNSQESVTEQDSKDSTYSLSSTLTLSKADYEKHKVYACEVTHQGLSSPVTKSFNRGEC
[1]
  Kd: 0.141 nM
  koff: 0.000125 s⁻¹
  kon: 886000 M⁻¹ s⁻¹
[2]
  RU at 25 nM C1q: -3.6 RU
[3]
  EC50: 3.43 nM
[4]
  Kd: 121 nM
  koff: 0.0453 s⁻¹
  kon: 374000 M⁻¹ s⁻¹
[5]
  Kd: 0.0494 nM
  koff: 8.09e-05 s⁻¹
  kon: 1.64e+06 M⁻¹ s⁻¹
[6]
  IC50: 1.41 nM
[7]
  Donor 1 IC50, IL-2 release by pre-activated human CD4+ T cells with 20 ng/ml human OX40L: 1.37 nM
  Donor 2 IC50, IL-2 release by pre-activated human CD4+ T cells with 20 ng/ml human OX40L: 1.33 nM
  Donor 3 IC50, IL-2 release by pre-activated human CD4+ T cells with 20 ng/ml human OX40L: 1 nM
[8]
  IC50, luminescence (RLU), hOX40 reporter cells with 50 ng/mL hOX40L: 0.852 nM
[9]
  binding result: no binding (tested: 6 µM)
[10]
  binding result: no binding (tested: 18 µM)
[11]
  binding result: no binding (tested: 8 µM)
[12]
  binding result: no binding (tested: 10 µM)
[13]
  binding result: no binding (tested: 8 µM)
[14]
  binding result: no binding (tested: 12.5 nM)
[15]
  binding result: no binding (tested: 6 µM)
[16]
  Kd: 145 nM
  koff: 0.0442 s⁻¹
  kon: 306000 M⁻¹ s⁻¹

B2: anti-hOX40L antibody clone 114 (antibody, human IgG1, kappa, L234A L235A)
heavy: B1 heavy with R3Q, L4V, S31N, A40S, Y80F, V93A, A97V, L113Q
light: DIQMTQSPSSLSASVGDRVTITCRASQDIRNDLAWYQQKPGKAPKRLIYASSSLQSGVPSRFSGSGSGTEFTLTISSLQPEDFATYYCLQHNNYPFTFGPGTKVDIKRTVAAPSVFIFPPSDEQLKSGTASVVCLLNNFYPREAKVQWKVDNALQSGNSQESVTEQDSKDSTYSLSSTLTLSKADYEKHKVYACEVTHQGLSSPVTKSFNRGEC
[1]
  Kd: 0.106 nM
  koff: 0.000114 s⁻¹
  kon: 1.07e+06 M⁻¹ s⁻¹
[2]
  RU at 25 nM C1q: -4.8 RU
[3]
  EC50: 4.04 nM
[4]
  Kd: 117 nM
  koff: 0.0445 s⁻¹
  kon: 381000 M⁻¹ s⁻¹
[5]
  Kd: 0.0336 nM
  koff: 7.73e-05 s⁻¹
  kon: 2.3e+06 M⁻¹ s⁻¹
[6]
  IC50: 1.12 nM
[7]
  Donor 1 IC50, IL-2 release by pre-activated human CD4+ T cells with 20 ng/ml human OX40L: 1.25 nM
  Donor 2 IC50, IL-2 release by pre-activated human CD4+ T cells with 20 ng/ml human OX40L: 1.19 nM
  Donor 3 IC50, IL-2 release by pre-activated human CD4+ T cells with 20 ng/ml human OX40L: 1.18 nM
[8]
  IC50, luminescence (RLU), hOX40 reporter cells with 50 ng/mL hOX40L: 0.732 nM
[9]
  binding result: no binding (tested: 6 µM)
[10]
  binding result: no binding (tested: 18 µM)
[11]
  binding result: no binding (tested: 8 µM)
[12]
  binding result: no binding (tested: 10 µM)
[13]
  binding result: no binding (tested: 8 µM)
[14]
  binding result: no binding (tested: 12.5 nM)
[15]
  binding result: no binding (tested: 6 µM)
[16]
  Kd: 141 nM
  koff: 0.0471 s⁻¹
  kon: 333000 M⁻¹ s⁻¹

B3: anti-hOX40L antibody clone 231 (antibody, human IgG1, kappa, L234A L235A)
heavy: QVQLVQSGTEVKKPGASVKVSCKASGYTFTNYDINWVRQATGQGLEWVGWIHPNTGKTGYAQKFQGRVTMTRDISIGTAYMELNSLRSEDTAVYYCARESYDLWSGHSFNWFDPWGQGTLVTVSSASTKGPSVFPLAPSSKSTSGGTAALGCLVKDYFPEPVTVSWNSGALTSGVHTFPAVLQSSGLYSLSSVVTVPSSSLGTQTYICNVNHKPSNTKVDKKVEPKSCDKTHTCPPCPAPEAAGGPSVFLFPPKPKDTLYITREPEVTCVVVDVSHEDPEVKFNWYVDGVEVHNAKTKPREEQYNSTYRVVSVLTVLHQDWLNGKEYKCKVSNKALPAPIEKTISKAKGQPREPQVYTLPPSRDELTKNQVSLTCLVKGFYPSDIAVEWESNGQPENNYKTTPPVLDSDGSFFLYSKLTVDKSRWQQGNVFSCSVMHEALHNHYTQKSLSLSPG
light: DIQLTQSPSFLSASVGDRVIITCRASQGITSYLAWYQRKPGKAPKLLIYGATTLQSGVPSRFSGSGSGTEFTLTISSLQPEDFATYYCQQLQSYPYTFGQGTKLEIKRTVAAPSVFIFPPSDEQLKSGTASVVCLLNNFYPREAKVQWKVDNALQSGNSQESVTEQDSKDSTYSLSSTLTLSKADYEKHKVYACEVTHQGLSSPVTKSFNRGEC
[1]
  Kd: 0.137 nM
  koff: 0.00013 s⁻¹
  kon: 943000 M⁻¹ s⁻¹
[2]
  RU at 25 nM C1q: 1.8 RU
[4]
  Kd: 117 nM
  koff: 0.0465 s⁻¹
  kon: 398000 M⁻¹ s⁻¹
[5]
  Kd: 0.0714 nM
  koff: 0.000105 s⁻¹
  kon: 1.47e+06 M⁻¹ s⁻¹
[6]
  IC50: 28.5 nM
[8]
  IC50, luminescence (RLU), hOX40 reporter cells with 50 ng/mL hOX40L: 0.909 nM
[9]
  binding result: no binding (tested: 6 µM)
[10]
  binding result: no binding (tested: 18 µM)
[11]
  binding result: no binding (tested: 8 µM)
[12]
  binding result: no binding (tested: 10 µM)
[13]
  binding result: no binding (tested: 8 µM)
[14]
  binding result: no binding (tested: 12.5 nM)
[15]
  binding result: no binding (tested: 6 µM)
[16]
  Kd: 141 nM
  koff: 0.0462 s⁻¹
  kon: 328000 M⁻¹ s⁻¹
